# Target: SARS-CoV-2 Nsp15 catalytically inactive mutant H234A (SARS-CoV-2)
# Experiment: cryo-EM structure
substance,measurement,value
SARS-CoV-2 Nsp15 catalytically inactive mutant H234A (enzyme),stoichiometry N,6

# From paper PMC11214832
